What all share (experiment): SPOT array
In assay [1] the target is T1, Boi1 SH3 (BOI1_YEAST), P38041.
T1 chain: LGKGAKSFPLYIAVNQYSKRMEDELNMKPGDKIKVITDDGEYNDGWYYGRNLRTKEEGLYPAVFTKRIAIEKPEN

Assay [2] deals with T2, Rvs167 SH3 (RV167_YEAST), P39743.
T2 chain: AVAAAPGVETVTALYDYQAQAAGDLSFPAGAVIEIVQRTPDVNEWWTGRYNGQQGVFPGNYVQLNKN

Assay [3] addresses T3, Yfr024 SH3 (LSB3_YEAST), P43603.
T3 chain: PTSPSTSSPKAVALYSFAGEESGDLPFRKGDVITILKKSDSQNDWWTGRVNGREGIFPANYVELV

The target of assay [4] is T4, Boi2 SH3 (BOI2_YEAST), P39969.
T4 chain: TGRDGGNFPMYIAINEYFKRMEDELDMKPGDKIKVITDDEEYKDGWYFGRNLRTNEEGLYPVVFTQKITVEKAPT

Assay [5] concerns the target T5, Yhr016c SH3 (YSC84_YEAST), P32793.
T5 chain: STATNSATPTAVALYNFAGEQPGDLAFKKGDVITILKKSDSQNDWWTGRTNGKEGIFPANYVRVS

With QRHPKSPVKKPMTS [YCL014W 878-891], the normalised SPOT signal, Boehringer light units (BLU); mean over the file's lines of this peptide in assay [1] turned out to be 123; in assay [2], 192; in assay [3] it was 676; in assay [4], 90.5; in assay [5], 169.
Regarding QSQPPRPPRPAANL [YGR268C 24-37], the normalised SPOT signal, Boehringer light units (BLU); mean over the file's lines of this peptide turned out to be 577 in assay [1]; 105 in assay [2]; 27400 in assay [3]; 16 in assay [4]; 11000 in assay [5].
As for QPKPGNPLRNARLN [YMR191W 37-50], the normalised SPOT signal, Boehringer light units (BLU); mean over the file's lines of this peptide in assay [1] was determined as 174; in assay [2], 49.2; in assay [3], 266; in assay [4] it was 21.7; in assay [5] it was 169.
With QLLPNNPDKNNNGT [YKL159C 151-164], the normalised SPOT signal, Boehringer light units (BLU); mean over the file's lines of this peptide amounted to 149 in assay [1]; 0 in assay [2]; 49.9 in assay [3]; 52.3 in assay [4]; 130 in assay [5].
Taken in the same sequence, the figures for QSPPRSPGRSPTRR [YLR086W 108-121] were 33500, 906, 1890, 3450 and 408.
For QNTPPLPPKPKSPH [YCL008C 175-188], in that order: 102, 1050, 38500, 46 and 18200.
Taken in the same sequence, the figures for QLTPLLPDKYFDSA [YBL066C 693-706] were 50.1, 106, 516, 19.8 and 207.
With QMRPYTPLRSPNSR [YOR093C 49-62], the normalised SPOT signal, Boehringer light units (BLU); mean over the file's lines of this peptide in assay [1] came to 2880; in assay [2], 1140; in assay [3] it was 4420; in assay [4] it was 1420; in assay [5] it was 1440.
For QRLPGEPGREQAPN [YOR322C 391-404], in that order: 103, 2.1, 61.7, 14 and 118.
For QQKPAIPQKKSFLT [YPR171W 424-437], in that order: 170, 42.5, 3880, 71.9 and 101.
Taken in the same sequence, the figures for QPAPRIPSKDAIIS [YAL051W 100-113] were 58.1, 169, 1610, 23.6 and 95.9.
Take QLLPNVPDKVLVPG [YDL220C 391-404]: the normalised SPOT signal, Boehringer light units (BLU); mean over the file's lines of this peptide in assay [1] came to 87.7; in assay [2], 67.5; in assay [3], 69; in assay [4], 49.5; in assay [5], 92.2.
Consider QRQPKRPKRYSLLL [YJR147W 216-229], for which the normalised SPOT signal, Boehringer light units (BLU); mean over the file's lines of this peptide in assay [1] was 117; in assay [2], 104; in assay [3], 5420; in assay [4], 194; in assay [5], 613.
For the molecule QSNPTSPTKQTFTI [YBL085W 600-613], the normalised SPOT signal, Boehringer light units (BLU); mean over the file's lines of this peptide in assay [1] was 62.2; in assay [2], 60.4; in assay [3], 148; in assay [4], 65.7; in assay [5] it was 182.
For QMNPKNPIRLGMAN [YOR227W 657-670], in that order: 679, 25.7, 866, 118 and 182.
For QPLPTSPSKRFSSL [YOR372C 249-262], the normalised SPOT signal, Boehringer light units (BLU); mean over the file's lines of this peptide in assay [1] was found to be 53.8; in assay [2] it was 32.1; in assay [3], 164; in assay [4], 94.3; in assay [5], 249.
With QNNPPKPQKPVPLN [YOR290C 415-428], the normalised SPOT signal, Boehringer light units (BLU); mean over the file's lines of this peptide in assay [1] is 14.1; in assay [2], 23.6; in assay [3], 116; in assay [4], -0; in assay [5], 148.
Taken in the same sequence, the figures for QLFPVRPVRVRHED [YDL150W 198-211] were 34100, 11400, 28800, 5900 and 13600.
Taken in the same sequence, the figures for QQLPLEPLKPTATG [YOR329C 404-417] were 143, 45.9, 257, 27.2 and 122.
